The target of assay [1] is T1, human CTGF (human, UniProt P29279 27-349).
T1 construct: also called human CTGF protein; connective tissue growth factor
T1 sequence: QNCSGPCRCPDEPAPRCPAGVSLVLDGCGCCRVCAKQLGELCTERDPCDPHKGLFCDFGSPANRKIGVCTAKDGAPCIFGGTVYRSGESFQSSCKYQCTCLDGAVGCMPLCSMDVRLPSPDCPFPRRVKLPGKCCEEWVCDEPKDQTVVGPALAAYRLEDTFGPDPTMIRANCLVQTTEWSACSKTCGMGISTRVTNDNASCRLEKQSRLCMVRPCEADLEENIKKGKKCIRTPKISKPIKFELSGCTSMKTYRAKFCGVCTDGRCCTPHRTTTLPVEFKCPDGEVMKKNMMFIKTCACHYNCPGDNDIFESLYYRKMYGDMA
Nature of the assay: ELISA, human CTGF immobilized on the plate, HRP anti-mouse IgG detection. The method, then:
The present inventors evaluated the binding specificity of the antibody for CTGF using an ELISA method. 20 μL of PBS solution of human CTGF (1 μg/mL) was added to a Maxisorp 384 plate (Nunc, Inc.), and immobilized by being incubated overnight at 4° C. The next day, the plate was washed once with 100 μL of washing solution (TPBS: 0.05% Tween-20-containing PBS), and then 100 μL of blocking agent (1% BSA-containing PBS) was added thereto and allowed to stand at room temperature for 1 hour. After washing once with 100 μL of TBST washing solution, a series of appropriate dilutions of the purified antibody sample were prepared and added to the plate. After incubation at room temperature for 1 hour, the plate was washed three times with 100 μL of TBST washing solution, and a goat anti-mouse IgG antibody labeled with a horseradish peroxidase (HRP-goat anti-mouse IgG antibody; Zymed Laboratories, Inc.) which was diluted 5000-fold with a 0.1% BSA-containing TBST washing solution (20 μL) was added thereto. […] After adding 40 μL of TMB chromogenic reagent (Sumitomo Bakelite Co., Ltd.) thereto and allowing it to stand at room temperature for 10 minutes, 40 μL of stopping solution (2 mol/L sulfuric acid) was added thereto to stop the reaction, and the absorbance at 450 nm was measured. Each of the antibodies was tested in duplicate, and the EC50 was analyzed by curve fitting.

The next assay deals with T2, monkey CTGF (monkey).
T2 construct: mature
In words: ELISA, CTGF immobilized on the plate, HRP anti-human IgG detection. Here is the method: (§1) The present inventors evaluated the binding specificity of the antibody for CTGF using an ELISA method. 20 μL of PBS solution of human CTGF (1 μg/mL) was added to a Maxisorp 384 plate (Nunc, Inc.), and immobilized by being incubated overnight at 4° C. The next day, the plate was washed once with 100 μL of washing solution (TPBS: 0.05% Tween-20-containing PBS), and then 100 μL of blocking agent (1% BSA-containing PBS) was added thereto and allowed to stand at room temperature for 1 hour. After washing once with 100 μL of TBST washing solution, a series of appropriate dilutions of the purified antibody sample were prepared and added to the plate. After incubation at room temperature for 1 hour, the plate was washed three times with 100 μL of TBST washing solution, and a goat anti-mouse IgG antibody labeled with a horseradish peroxidase (HRP-goat anti-mouse IgG antibody; Zymed Laboratories, Inc.) which was diluted 5000-fold with a 0.1% BSA-containing TBST washing solution (20 μL) was added thereto. After incubation at room temperature for 1 hour, the plate was washed three times with 100 μL of TBST washing solution. After adding 40 μL of TMB chromogenic reagent (Sumitomo Bakelite Co., Ltd.) thereto and allowing it to stand at room temperature for 10 minutes, 40 μL of stopping solution (2 mol/L sulfuric acid) was added thereto to stop the reaction, and the absorbance at 450 nm was measured. Each of the antibodies was tested in duplicate, and the EC50 was analyzed by curve fitting.
(§2) The present inventors evaluated the binding specificity of fully human 37-45 and fully human 37-45-MH1 prepared in the above Examples to human, mouse, rat and monkey CTGF using an ELISA method. Here, the same method as described in Example 4 was used, but a rabbit anti-human IgG antibody labeled with horseradish peroxidase (HRP-rabbit anti-human IgG antibody; DAKO) which was 5000-fold diluted with a 0.1% BSA-containing TBST washing solution as a secondary antibody. The test on each antibody was carried out in duplicate and EC50 was analyzed by curve fitting.

The target of the next assay is T3, rat CTGF (rat, UniProt Q9R1E9 25-347).
T3 construct: mature
T3 sequence (looked up): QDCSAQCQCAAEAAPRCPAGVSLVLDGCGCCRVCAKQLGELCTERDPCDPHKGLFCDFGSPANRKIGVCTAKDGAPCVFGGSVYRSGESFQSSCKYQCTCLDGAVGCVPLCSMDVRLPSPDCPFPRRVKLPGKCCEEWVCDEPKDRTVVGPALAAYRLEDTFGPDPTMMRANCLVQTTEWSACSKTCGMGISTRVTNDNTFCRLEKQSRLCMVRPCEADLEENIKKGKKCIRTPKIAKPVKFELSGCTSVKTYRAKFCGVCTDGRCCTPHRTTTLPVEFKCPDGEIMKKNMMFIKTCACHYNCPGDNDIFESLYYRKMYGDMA
The description is as above. Here is the method:
as §1, §2

Assay [2] addresses T1, human CTGF. Described as above. The method, then:
as §1, §2

A further assay has as its target T4, mouse CTGF (mouse, UniProt P29268 26-348).
T4 construct: mature
T4 sequence (looked up): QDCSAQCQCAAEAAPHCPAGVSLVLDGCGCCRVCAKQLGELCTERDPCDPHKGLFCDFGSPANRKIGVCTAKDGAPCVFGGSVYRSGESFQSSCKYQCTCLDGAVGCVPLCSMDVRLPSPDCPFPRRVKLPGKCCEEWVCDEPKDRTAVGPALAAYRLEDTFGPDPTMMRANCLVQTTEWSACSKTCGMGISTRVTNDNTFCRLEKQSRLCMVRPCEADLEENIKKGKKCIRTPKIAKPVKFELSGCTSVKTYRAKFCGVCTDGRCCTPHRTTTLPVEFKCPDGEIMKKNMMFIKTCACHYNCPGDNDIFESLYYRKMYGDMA
The assay is described as above. The method, then:
as §1, §2

Assay [3] addresses T1, human CTGF. Nature of the assay: SPR, Biacore 2000, antibody captured on CM5 chip (Human Antibody Capture Kit), human CTGF as analyte. The text has this: (§3) In order to measure the antigen-specific binding activity of fully human 37-45-MH1 in more detail, the present inventors carried out surface plasmon resonance (SPR) analysis. In the present Example, an anti-human CTGF antibody CLN1 (Patent Document 2) was used as a comparative antibody.
(§4) In the SPR analysis, Biacore 2000 (GE Healthcare Japan) was used to carry out analysis. An anti-CTGF antibody was immobilized on the surface of a Sensor Chip CM5 using a Human Antibody Capture Kit and an Amine Coupling Kit (GE Healthcare Japan). Serial dilution of the human CTGF acquired in Example 1 was made by HBS-EP solution (GE Healthcare Japan). 100 μL of the dilution was added to flow path at flow rate 50 μl/min. By this measurement system, the association rate constant (ka), the dissociation rate constant (kd), and the dissociation constant (KD) between the human CTGF protein and the anti-CTGF antibody were calculated using a data analysis software (BIA Evaluation).

In assay [4] the target is T1, human CTGF. In words: SPR, Biacore 2000, comparison of KD with the reference antibody CLN1.
Excerpt: as §3, §4

B1: 37-45 (antibody, V domains shown)
VH: QVQLVQSGAEVKKPGASVKVSCKASGYTFTGYYMYWVRQAPGQGLEWMGWINPNSGGTNYSQKFQGRVTMTRDTSISTAYMELSRLRSDDTALYYCARGSKWNYPFDYWGQGTLVTVSS
VL: EIVLTQSPGTLSLSPGERATLSCRASQSVSSSYLAWYQQKPGQAPRLLIYGASRRATGIPDRFSGSGSGTDFTLTISRLEPEDFVVYFCQQYVSTPWTFGQGTKVEIKR
notes: also called 37-45 antibody
With B1, in the assay with human CTGF [1], the half-maximal effective concentration (EC50) is 0.0016 µg/mL.

B2: fully human 37-45 (antibody, human IgG1, kappa, V domains shown)
VH: QVQLVQSGAEVKKPGASVKVSCKASGYTFTGYYMYWVRQAPGQGLEWMGWINPNSGGTNYSQKFQGRVTMTRDTSISTAYMELSRLRSDDTALYYCARGSKWNYPFDYWGQGTLVTVSS
VL: EIVLTQSPGTLSLSPGERATLSCRASQSVSSSYLAWYQQKPGQAPRLLIYGASRRATGIPDRFSGSGSGTDFTLTISRLEPEDFVVYFCQQYVSTPWTFGQGTKVEIKR
notes: Human Ig gamma1 and human kappa constant regions, expressed in CHO-K1SV cells; The heavy-chain variable region has an N-glycosylation motif at Asn 58 (Kabat)
For B2, the EC50 was found to be 0.0125 µg/mL in the assay with monkey CTGF, 0.0131 µg/mL in the assay with rat CTGF, 0.0132 µg/mL with human CTGF [2] and 0.0124 µg/mL with mouse CTGF.

B3: fully human 37-45-MH1 (antibody, human IgG1, kappa, V domains shown)
VH: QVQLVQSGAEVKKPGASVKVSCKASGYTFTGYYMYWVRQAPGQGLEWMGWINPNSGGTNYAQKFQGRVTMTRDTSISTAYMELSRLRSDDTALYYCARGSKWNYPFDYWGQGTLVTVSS
VL: EIVLTQSPGTLSLSPGERATLSCRASQSVSSSYLAWYQQKPGQAPRLLIYGASRRATGIPDRFSGSGSGTDFTLTISRLEPEDFVVYFCQQYVSTPWTFGQGTKVEIKR
notes: It has the same light chain as fully human 37-45; Human IgG1/kappa
In the assay with human CTGF [3], B3 gave a Kd of 0.037 nM. Moreover, the koff with human CTGF [3] amounted to 0.00016 s⁻¹. In addition, the “fold binding activity against CLN1” value with human CTGF [4] was no less than 12 times. Also, the EC50 came to 0.0086 µg/mL with monkey CTGF, 0.0092 µg/mL with rat CTGF, 0.0104 µg/mL in the assay with human CTGF [2] and 0.0092 µg/mL with mouse CTGF.
